Assay results reported in PMC7356358, “Comparative Characterization of Plasmodium falciparum Hsp70-1 Relative to E. coli DnaK Reveals the Functional Specificity of the Parasite Chaperone” (Biomolecules, 2020).
Where “and” joins values, the source holds several entries; their conditions need not be identical. Identical values can stand only once.

B1: peptide GFRVVLMYRF (peptide)
peptide: GFRVVLMYRF
notes: canonical model Hsp70 peptide substrate; source: synthetic peptide
B2: Plasmodium falciparum Hsp70-1 (natural protein)
chain: not shown
notes: Plasmodium falciparum Hsp70-1, cytosolic Hsp70; PlasmoDB PF3D7_0818900; expressed from pQE30/PfHsp70-1; also called PfHsp70-1; PfHsp70
B3: Plasmodium falciparum Hsp40 (natural protein, UniProt Q8IL88 1-424, looked up)
chain: MFFSSGFPFDSMGGQQARRKREVNNNKFYEVLNLKKNCTTDEVKKAYRKLAIIHHPDKGGDPEKFKEISRAYEVLSDEEKRKLYDEYGEEGLENGEQPADATDLFDFILNAGKGKKKRGEDIVSEVKVTLEQLYNGATKKLAISKDIICTNCEGHGGPKDAKVDCKQCNGRGTKTYMRYHSSVLHQTEVTCNTCRGKGKIFNEKDKCANCKGMCVLKTRKIIEVYIPKGAPNKHKIVFNGEADEKPNVITGNLVVILNEKQHPVFRREGIDLFMNYKISLYESLTGFVAEVTHLDERKILVNCTNSGFIRHGDIREVLDEGMPTYKDPFKKGNLYITFEVEYPMDLIITNENKEVLKILKKQNEVEKKYDLENSELEVVSCSPVDKEYIKVRVTKQQQQQQQEAYDDEDHQPEMEGGRVACAQQ
notes: P. falciparum type I Hsp40, cytosolic co-chaperone of PfHsp70-1; PlasmoDB PF3D7_1437900; codon harmonized gene cloned into pQE30 (BamHI, HindIII); also called PfHsp40
B4: peptide NRLLTG (peptide)
peptide: NRLLTG
notes: as for B1
B5: peptide NRNNTG (peptide)
peptide: NRNNTG
notes: NRLLTG with the middle residues substituted by asparagine; source: synthetic peptide
B6: peptide ALLLMYRR (peptide)
peptide: ALLLMYRR
notes: as for B1

Columns and labels:
Escherichia coli DnaK [1] = biological target: T1, Escherichia coli DnaK (Escherichia coli, UniProt P0A6Y8 1-638); experiment: SPR; MP-SPR; Hsp70 immobilised, peptide as analyte at 0-2000 nM, 100 µL/min; with 5 mM ATP (hydrolysable); conditions: both partners purified
T1 construct: E. coli Hsp70 (DnaK); expressed from pQE30/DnaK; also called E. coli Hsp70

[2] = biological target: B2; experiment: SPR; conditions: both partners purified
[3] = biological target: the molecule itself; experiment: SPR; MP-SPR (BioNavis); Hsp70 immobilised on a CMD3D 500L chip, the same Hsp70 as analyte at 0-2000 nM; with 5 mM ATP; self-association, step not told; global fit
[4] = biological target: the molecule itself; experiment: SPR; MP-SPR (BioNavis); Hsp70 immobilised on a CMD3D 500L chip, the same Hsp70 as analyte at 0-2000 nM; no nucleotide; self-association, step not told; global fit
[5] = biological target: the molecule itself; experiment: SPR; MP-SPR (BioNavis); Hsp70 immobilised on a CMD3D 500L chip, the same Hsp70 as analyte at 0-2000 nM; with 5 mM ADP; self-association, step not told; global fit
[6] = biological target: B2; experiment: SPR; MP-SPR (BioNavis); Hsp70 immobilised (1.0 μg/mL), PfHsp40 as analyte at 0-2000 nM; with 5 mM ATP; global fit; conditions: both partners purified
[7] = biological target: B2; experiment: SPR; MP-SPR (BioNavis); Hsp70 immobilised (1.0 μg/mL), PfHsp40 as analyte at 0-2000 nM; with 5 mM ADP; global fit; conditions: both partners purified
[8] = biological target: B2; experiment: SPR; MP-SPR (BioNavis); Hsp70 immobilised (1.0 μg/mL), PfHsp40 as analyte at 0-2000 nM; no nucleotide; global fit; conditions: both partners purified
Escherichia coli DnaK [9] = biological target: T1, Escherichia coli DnaK; experiment: SPR; conditions: both partners purified
Escherichia coli DnaK [10] = biological target: T1, Escherichia coli DnaK; experiment: SPR; MP-SPR; Hsp70 immobilised, peptide as analyte at 0-2000 nM, 100 µL/min; with 5 mM ADP; conditions: both partners purified

ANNNMYRR (source: synthetic peptide) [peptide ANNNMYRR]: binds (Escherichia coli DnaK [1]); binds [2].

B1: binds (Escherichia coli DnaK [1]); binds [2].

GFRNNNMYRF (source: synthetic peptide) [peptide GFRNNNMYRF]: binds (Escherichia coli DnaK [1]); binds [2].

Binder B2 has a Kd [3] of 528 nM, a kon [3] of 21400 M⁻¹ s⁻¹ and a Kd [4] of 2390 nM. It also gave a kon [4] of 8510 M⁻¹ s⁻¹, a Kd [5] of 1710 nM and a kon [5] of 100 M⁻¹ s⁻¹.

B3 gave a Kd [6] of 208 nM, a kon [6] of 181 M⁻¹ s⁻¹ and a Kd [7] of 9980 nM. It also gave a kon [7] of 1530 M⁻¹ s⁻¹, a Kd [8] of 18800 nM and a kon [8] of 1330 M⁻¹ s⁻¹. For the same binder, the kon (Escherichia coli DnaK [9]) was 122 M⁻¹ s⁻¹ and 116 M⁻¹ s⁻¹ and 112 M⁻¹ s⁻¹.

B4: binds [2]; binds (Escherichia coli DnaK [10]).

B5: binds [2]; binds (Escherichia coli DnaK [10]).

B6: binds [2]; binds (Escherichia coli DnaK [10]).
